From a protein production outcome set (Wang et al. 2014)

assay: label from the status in PepcDB records

Protein production, failed:
MNTIIRYASLWGLCAALTLAQTPSKTPDEIKQILNNYSHKNLKLIDPPTSSLEATPSFLSSPKETATTINQEIAKYHEKSDKAALGLYELLKGATTNLSLQAQELSVKQAMKNHTIAKAMFLPTLNASYNFKNEARDTPEYKHYNTQQLQAQVTLNVFNGFSDVNNVKEKSATYRSNVANLEYSRQSVYLQVVQQYYEYFNNLARMIALQKKLEQIKTDIKRVTKLYDKGLTTIDDLQSLKAQGNLSEYDILDMQFALEQNRLTLEYLTNLSVKNLKKTTIDAPNLQLRERQDLVSLREQISAIRYQNKQLNYYPKIDVFDSWLFWIQKPAYATGRFGNFYPGQQNTAGVTATLNIFDDIGLSLQKQSIMLGQLANEKNLAYKKLEQEKDEQLYRKSLDIARAKIESSKASLDAANLSFANIKRKYDANLVDFTTYLRGLTTRFDAEVAYNLALNNYEVQKANYIFNSGHKIDDYVH
MNTILSTLFIVLAAWFVISRFLPVKGVQNINGKELKSIVGKQGKYFIDVRTVGEYRGNHMKGFQNIPLNDLASKTNQLDKNREVIVICQSGMRSKQAAKMLKKLGFQHVINVSGGMNGL
MNTIVVAQLQRQFQDYIVSLYQQGFLDNQFSELRKLQDEGTPDFVAEVVSLFFDDCSKLINTMSISLERPDNVDFKQVDSGVHQLKGSSSSLCFVLSVGARRVKNVCISFKECCDVQNREGYSSNSHTNCDNDIWHRCLRCLQQVDYEYKMLKTKLQDLFNVSFKLCENLLVLLLEKQILQAGGTIPQVDIN
MNTLNRYIGWEVIKGAAFAALVLLALLNFFTFADELRDLGEGNYGLGSIFLYLTLTSPHSLYELIPSGALIGGLVVLGNMANNHELVAMQAAGVSRGRIVWAVLRAGIVISLISVVISEYVIPPAERAAQMLKATATRQQVASQTKYGVWIRDGNVYVNVREIENQERLGDIHIFEISPDGRPALAMHAARASFDRGIWKLEDIGLTRFDPAGNAAIAEHKEQEDWSSVLSPDMLDVFIVRPENLSAQDLAKYMAYQTENAQKSLAVEQAFWGRMVNPLITLAMLLLAIPFVFNARRDVSSGQRIVIGVTIGLGFYLTNRMVSHLGLVYEVNAPLTMVTPPLVVLFAALAAFRRRP
MNTLRYFDFGAARPVLLLIARIAVVLIFIIFGFPKMMGFDGTVQYMASLGAPMPMLAAIIAVVMEVPAAILIVLGFFTRPLAVLFIFYTLGTAVIGHHYWDMTGDAVGPNMINFWKNVSIAGAFLLLAITGPGAISLDRR
MNTPQFNKIAVLVATLLISALFLTMIRQFLVTILLAGIFTGLAYPLFSRFITLTRGHRSLSASMTLVIFFMMVFLPLLAVFTVVILQAVSLSSTAIPLIREQLRDPEGFLRMLSSLPFYKDIESYSDLILEKAAEILGNLGSSVLSSFSAITWTAIYDLVLFIIFWYTMFFLLRDGHELLERIKYYLPLNESDQRRLFDRFVSVTRASLKGSLIIAVIQGTLAGLAFYVAGINQAVFWGAIMAMLSLLPLIGSPIIWVPAVIILALSGNYAQAIGLFLFCSIIVGQIDNVLRPILVGRDTSMHELFIFFGTLGGIGMFGLPGFIIGPVVAALFVTVWDIYGETFNESLIERRSGGGQAAGSDGSAP
MNTRHFSQLPKPYLAYPKVIQGLVFKKPKGSKILPQVEYVVDSFQIDQQHLRDYNEVCGFQNDGFIPAIYLAVLSQSLQMHMMTTEAFPFPVLGLVHIRNQIKQIRKIAVNETLTLSCQFGELKPHDKGLQFDFITTAKVGNDIVMEGITTYLSRQKTEQVSAEKPKENKTPDYQVQQVWDVAENTGRRYAKTSGDYNLIHIHAITAKAFGFKQAIAHGMWSKAKALANIVLPDAYEADVWFKLPMYLPSKVEFLTAEQSKETDFLIRNAKSQKPHVSGVVKAL
MNTSFIKTLMTTNAGFAALALRIPTAIIFIAHGAQKLFGSFGGYGLEGTGQWMASIGLEPGYQLALLAGSAEFFGGIALLIGLLVRPAALMLSVTMVVAIFSVHFANGLFMTNNGYEFALALLAVSFSLMFSGAGKLSLDNLLAEKLA
MNTSNRRMGLFYVITGATCWGIGGTVAKKLFQEYQIDVNWLVTTRLLTAGMLLLMLQLFRKDRSQVIEVWKHKASAGQLLIFGLLGMLAVQYTYMASIQHGNAAVATLLQYLSPVIVIIYTLLRKQTVLTKQDIITVVLALVGCFFLLTNGSMSQLSVPAAAVVWGVLSGFAAAFYTLYAVGLLNKFDSLVVVGWAMIIGGFALGFIHPPWQLDFQRLTAEAYAYILFVILFGTMIAFWFFIKSLESLSPKETSLLGSLEPLSAVVTTVVWLKAPFGSFQWIGAICIIGITLILALHKEPSMESEKSILKIRNHANRDI
